PMC12183618

How the values were obtained:
[1] = target: MmpL10‐mEGFP‐FLMsm (Mycobacterium smegmatis); assay: SEC; Superose 6 Increase 10/300 GL, 50 mM Tris-HCl pH 8, 150 mM NaCl, 3x CMC LMNG (m1 also in DDM and LDAO); apparent MW from a calibration curve
[2] = target: MmpL10‐mEGFP‐FLMsm (Mycobacterium smegmatis); assay: negative-stain electron microscopy; top SEC peak fraction in LMNG at 0.5 μM, uranyl acetate 1%; low-resolution map, C1 symmetry, fitted with a trimeric AlphaFold v3 model

## MmpL10‐mEGFP‐FLMsm (natural protein)
[1]
  stoichiometry N: 3
[2]
  stoichiometry N: 3
